The target in test [1] is DLnano_LS_GT8 (DNA‐launched lumazine synthase nanoparticle decorated with eOD‐GT8, produced in vivo) (Aquifex aeolicus). As to the kind of experiment: native gel or EMSA; pseudo-native PAGE (3-8% Tris-acetate gel, LDS buffer at room temperature, no boiling) of mouse muscle homogenates 4 d.p.i., blotted with VRC01; SEC-purified recombinant standards alongside.
For test [2], the target named is LS_HA_NC99 (lumazine synthase nanoparticle displaying the receptor binding domain of the head of influenza hemagglutinin, H1N1 A/New Caledonia/20/1999) (Aquifex aeolicus | influenza A virus H1N1 A/New Caledonia/20/1999). As to the kind of experiment: SEC + SEC-MALS + other: negative stain electron microscopy.

Consider “DLnano_LS_GT8 (DNA‐launched lumazine synthase nanoparticle decorated with eOD‐GT8, produced in vivo)”, for which, in test [1], the stoichiometry N stood at 60.
As to “LS_HA_NC99 (lumazine synthase nanoparticle displaying the receptor binding domain of the head of influenza hemagglutinin, H1N1 A/New Caledonia/20/1999)”, the stoichiometry N in test [2] is 60.

The values are drawn from publication PMC7175333.
